Experimental data published in US5814612A, “Retinol derivatives and uses thereof” (priority 1992, dated 1998).
“Also recorded” adds a separate entry of the source.

B1: IFN-gamma: mouse recombinant IFN-gamma (protein, UniProt P01580 23-155, looked up)
Interferon gamma: HGTVIESLESLNNYFNSSGIDVEEKSLFLDIWRNWQKDGDMKILQSQIISFYLRLFEVLKDNQAISNNISVIESHLITTFFSNSKAKKDAFMSIAKFEVNNPQVQRQAFNELIRVVHQLLPESSLRKRKRSRC
B2: IL-1: Human recombinant IL-1-α (protein, UniProt P01583 113-271, looked up)
Interleukin-1 alpha: SAPFSFLSNVKYNFMRIIKYEFILNDALNQSIIRANDQYLTAAALHNLDEAVKFDMGAYKSSKDDAKITVILRISKTQLYVTAQDEDQPVLLKEMPEIPKTITGSETNLLFFWETHGTKNYFTSVAHPNLFIATKQDYWVCLAGGPPSITDFQILENQA
B3: IL-4: murine rIL-4 (protein, UniProt P07750 21-140, looked up)
Interleukin-4: HIHGCDKNHLREIIGILNEVTGEGTPCTEMDVPNVLTATKNTTESELVCRASKVLRIFYLKHGKTPCLKKNSSVLMELQRLFRAFRCLDSSISCTMNESKSTSLKDFLESLKSIMQMDYS

What was measured:
[1] = system: 5/2 cells; type: in vitro ADME, human
Protocol: 5/2 cells (10^6 cells in 10 ml HB 101 medium) were incubated with all-trans-[^3 H] retinol (10 uCe/ml). After 24 hours, retinoids were extracted from the washed cell pellet and unlabeled marker retinoids were added. The crude extract was loaded on an analytical reversed-phase C-18 column. Retinoids were eluted with the shown linear gradient of water/methanol/chloroform. The flow rate was 0.5 ml/min. DPM were determined with an on line scintillation counter. Reference retinoids were the all-trans forms of 0: 3,4-didehydroretinoic acid, 1: all-trans-retinoic acid, 2: 3,4-didehydroretinol, 3: retinol, 4: retinyl linoleate, 5: retinyl oleate, 6: retinyl palmitate. Shaded area corresponds to P3. Cross-hatched area corresponds to P1.
Lymphoblastoid 5/2 cells grown in the presence of 10^-6 M retinol were spiked with ^3 H-labeled retinol. After 16 hours the cell pellet was delipidated according to the method of McLean et al. and separated on a reversed phase C-18 HPLC column (FIG. 7). […] Three peaks, P1, P2 and P3, could not be immediately identified. One peak eluting at 36-39 minutes (corresponding 83% methanol 7% water) provisionally called P3, but now known as 14HRR, was unusual because unlike P1 eluting at 31-34 minutes, its relative amount increased when the retinol concentration was lowered or when retinol was given to the cells bound to RBP. […] Since HeLa cells contain 14HRR, these cells were also used. 50 ml of packed HeLa cells (10^10 cells) yielded 25 OD348nmunits of pure P3 after the following sequence of steps: 1. Growth in the presence of 10^-5 M retinol; 2. Extraction of cell pellet according to McClean et al. (13); 3. Preparative C-18 HPLC column eluted with a water/methanol gradient; 4. semipreparative C18 HPLC column eluted with a water/acetonitrile gradient; 5. analytical C4 column eluted with a water/methanol gradient.

[2] = system: thymocytes; assay: Proliferation of anti-CD3 activated thymocytes in serum-free ITLB medium; type: cell-based, BALB/c mouse; settings: for ability of cytokine to replace retinol: absence of retinol; for growth-stimulating effect, anti-CD3, no Retinol / growth-stimulating effect, anti-CD3, 10^-6 M Retinol: 3 days, IL-1 10, IL-2 2, IL-4 5, IL-6 5, IFN-gamma 40, TNF-alpha 12, IL-2 + IL-4 2/5 U/ml; for growth-stimulating effect, anti-CD3, 10^-6 M Retinol: with 10^-6 M retinol (head), Retinol: stimulating agent none
Protocol: FIG. 14A: Purified BALB/c thymocytes were activated with immobilized anti-CD3e antibody and cultivated for four days in ITLB medium with or without retinol (3×10^-6 M), 14HRR (6×10^-7 M) (fresh 14HRR was added every 12 hours), human serum (3%) or FCS (10%) at the cellular densities shown. Proliferation was assayed by tritiated thymidine incorporation into cellular DNA.
FIG. 14B: BALB/c thymocytes (10^6 /ml) were added to microtiter plates coated with titrated amounts of anti-CD3e antibody with […] retinol or without, as indicated. Proliferation was measured in hexaduplicate wells on day 3 by ^3 H thymidine incorporation assay.
Purified thymocytes (5×10^5 cells/well) were stimulated by TCR crosslinking with immobilized anti-CD3e antibody (FIG. 15A) or 0.4 μg/ml Con A (FIG. 15B) in serum-free ITLB medium. The indicated amounts of retinoids were added either once at the beginning of the experiment (marked as "1×") or every 12 hours thereafter (marked as "6×"). DNA synthesis was measured after 72 hours by tritiated thymidine uptake as described.
Purified thymocytes (10^5 cells/well) were activated with anti-CD3 antibody in ITLB medium with or without retinol (3×10^-6 M), 14HRR (6×10^-7, added every 12 hours or human serum (3%)). DNA synthesis was measured daily by a 4 hour pulse of tritiated thymidine.
Thymocytes (5×10^4 /well) were activated by immobilized anti-CD3 mAb in medium ITLB. Retinol (2×10^-6 M) was added at initiation of culture, or delayed by 12 hours and 24 hours, respectively, or omitted altogether. ^3 H thymidine pulses of 4 hours were used to measure DNA synthesis of hexaduplicate wells.
Thymuses of 3 to 6-week-old BALB/c mice were teased in serum-free RPMI medium supplemented with 1% BSA, 10^-6 M linoleic acid and antibiotics. Depletion of accessory cells was achieved by two cycles of complement-dependent lysis with a mixture of anti-IA^d (5 μg/ml) and anti-IE^d (1:500 diluted ascites fluid). Briefly, cells were incubated on ice for 30 minutes with Ia antibodies, spun down, resuspended in 1:40 diluted rabbit complement, and incubated at 37° C. for 45 minutes. Incubations and two subsequent washes were carried out with RPMI medium containing 1% BSA. Cell viability was evaluated by trypan blue dye exclusion. To determine the extent of depletion of accessory cells, samples were stained with FITC-conjugated anti-Fc receptor antibody and analyzed by flow cytometry on a FACScan instrument (Becton Dickinson).
Cells were cultured in serum-free medium, referred to as ITLB, containing RPMI 1640 supplemented with 8×10^-7 M insulin (5 μg/ml), 7×10^-8 M transferrin (5 μg/ml), 2×10^-6 M linoleic acid, 2×10^-6 M delipidated BSA (0.12 mg/ml), 2 mM L-glutamine, 1 mM sodium pyruvate and antibiotics. They were seeded into 96-well flat-bottom plates at varying cellular densities in a final volume of 100 μl. In control experiments, cells were cultured in medium containing 10% FCS or 3% human serum and 5×10^-5 M 2ME. T cells and thymocytes were activated with immobilized, purified anti-mAb CD3e or by the addition of Con A in the presence or absence of different concentrations of retinoids. Unless indicated otherwise, retinoids were replenished every 12 hours to maintain a reasonably constant concentration of these labile compounds in culture. […] Cultures were carried out in duplicate. Plates were incubated at 37° C. in a humidified 5% CO2 atmosphere. Cellular proliferation was determined by [^3 H] thymidine uptake (0.5 uCi/well; New England Nuclear, Boston, Mass.) after the incubation times indicated for each experiment with a 4 hour labeling pulse.

[3] = system: T cells; assay: T cell activation and proliferation, retinol cofactor requirement; type: cell-based, murine
Protocol: They were seeded into 96-well flat-bottom plates at varying cellular densities in a final volume of 100 μl. In control experiments, cells were cultured in medium containing 10% FCS or 3% human serum and 5×10^-5 M 2ME. […] Cultures were carried out in duplicate. Plates were incubated at 37° C. in a humidified 5% CO2 atmosphere. Cellular proliferation was determined by [^3 H] thymidine uptake (0.5 uCi/well; New England Nuclear, Boston, Mass.) after the incubation times indicated for each experiment with a 4 hour labeling pulse. Cells were harvested onto glass filter and [^3 H]TdR incorporation was determined by liquid scintillation counting. The data presented are the means of duplicate or six replicate cultures. The restriction to duplicate measurements was necessary to conserve scarce 14HRR. […] Each experiment was repeated at least twice.

Molecule | ability to substitute for retinol in T cell activation (words) [3] | ability of cytokine to replace retinol [2] | growth-stimulating effect, anti-CD3, no Retinol [2] | growth-stimulating effect, anti-CD3, 10^-6 M Retinol [2] | other results
CC1=C(/C=C/C(C)=C/C=C/C(C)=C/C(=O)O)C(C)(C)CC=C1 [3,4-didehydroretinol acid, 3,4-didehydroretinoic acid] | – | – | – | – | detection as metabolite of retinol [1]: not detectable
CC1=C(/C=C/C(C)=C/C=C/C(C)=C/CO)C(C)(C)CC=C1 [3,4-didehydroretinol] | – | – | – | – | detection as metabolite of retinol [1]: not detectable
CC1=C(/C=C/C(C)=C/C=C/C(C)=C\CO)C(C)(C)CCC1 [13-cis-retinol] | can substitute for retinal | – | – | – | effectiveness relative to retinol ([2]; anti-CD3, 14HRR at 12 hour intervals): equally effective as all-trans retinol
IL-6: hrIL-6 | – | None of the four interleukins, IL-1, IL-2, IL-4 or IL-6, was capable of overcoming the requirement for retinal; also recorded: none of the interleukins tested (IL-1, IL-2, IL-4 and IL-6) nor TNF-alpha are substitutes for retinol | 1,005 ± 815 CPM | 130,590 ± 25,803 CPM | –
TNF-alpha | cannot be satisfied by retinoic acid or interleukins 1, 2, 4 and 6, and TNF-alpha | none of the interleukins tested (IL-1, IL-2, IL-4 and IL-6) nor TNF-alpha are substitutes for retinol | 464 ± 95 CPM | 122,905 ± 11,577 CPM | ability of cytokine to replace retinol ([2]; listed as TNF-α): does not
B1 | can substitute for retinol | can circumvent the retinol requirement and initiate durable proliferation in the absence of retinol or 14HRR | 81,876 ± 11,868 CPM | 220,359 ± 27,726 CPM | ability of cytokine to replace retinol ([2]; listed as interferon-gamma): can sustain thymocyte proliferation in the absence of retinol; also recorded: quite efficient in anti-CD3-mediated activation in the absence of retinol; effect of cytokine combined with retinol [2]: strong additive effects; effect of cytokine combined with retinol ([2]; listed as Interferon-gamma): clear additive effect with retinol
B2 | – | None of the four interleukins, IL-1, IL-2, IL-4 or IL-6, was capable of overcoming the requirement for retinal; also recorded: none of the interleukins tested (IL-1, IL-2, IL-4 and IL-6) nor TNF-alpha are substitutes for retinol | 959 ± 30 CPM | 118,924 ± 3,051 CPM | –
B3 | – | None of the four interleukins, IL-1, IL-2, IL-4 or IL-6, was capable of overcoming the requirement for retinal; also recorded: none of the interleukins tested (IL-1, IL-2, IL-4 and IL-6) nor TNF-alpha are substitutes for retinol | 991 ± 105 CPM | 115,849 ± 20,630 CPM | –
